Results reported in patent US6551840B2, “Method of screening TGF-β-inhibiting substances” (Chugai Seiyaku Kabushiki Kaisha, priority 1997, dated 2003).

Experiments:
Mv1Lu cell [1] = test: PAI-1 ELISA in culture supernatant of Mv1Lu cells with or without TGF-β1; format: cell-based, mink; conditions: Mv1Lu cells with forced expression; 10 ng/ml TGF-β1, 24 hours; control cells about 16-fold
Source text: Accordingly, TAK1DN was subjected to forced expression in the Mv1Lu cell to investigate the effects of TGF-β stimulation on PAI-1 expression. The TAK1DN expression vector used was the above-mentioned TAK1DN, and the TAK1 polypeptide mutant TAK1-K63W expression vector was constructed by inserting a gene (Yamaguchi K. et al., (1995) Science 270, 2008-2011) encoding the TAK1 polypeptide mutant TAK1-K63W in which the lysine residue at position 63 has been replaced with the tryptophan residue at the EcoRI and NotI restriction enzyme site of pCOS1 to give pTAK1K63W.
The Mv1Lu cells into which pTAK1Dn had been introduced (Mv/DN2), the cells into which pTAK1K63W had been introduced (Mv/KN7), and the control cells into which pCOS1 containing no inserted genes (Mv/NEO) had been introduced were each incubated in a low-serum medium (MEM medium containing 0.2% FBS; manufactured by GIBCO-BRL) with or without 10 ng/ml of TGF-β1 for 24 hours. The amount of PAI-1 in the culture supernatant was determined using the PAI-1 Quantative ELISA (manufactured by CALBIOCHEM).

Mv1Lu cell [2] = conditions: Yamaguchi K. et al., (1995) Science 270, 2008-2011; cited from earlier work

B1: TAK1-K63W: catalytically inactive TAK1 polypeptide mutant in which the lysine residue at position 63 has been replaced with the tryptophan residue (protein, UniProt O43318 1-606, looked up, variant K63W)
Mitogen-activated protein …: MSTASAASSSSSSSAGEMIEAPSQVLNFEEIDYKEIEVEEVVGRGAFGVVCKAKWRAKDVAIWQIESESERKAFIVELRQLSRVNHPNIVKLYGACLNPVCLVMEYAEGGSLYNVLHGAEPLPYYTAAHAMSWCLQCSQGVAYLHSMQPKALIHRDLKPPNLLLVAGGTVLKICDFGTACDIQTHMTNNKGSAAWMAPEVFEGSNYSEKCDVFSWGIILWEVITRRKPFDEIGGPAFRIMWAVHNGTRPPLIKNLPKPIESLMTRCWSKDPSQRPSMEEIVKIMTHLMRYFPGADEPLQYPCQYSDEGQSNSATSTGSFMDIASTNTSNKSDTNMEQVPATNDTIKRLESKLLKNQAKQQSESGRLSLGASRGSSVESLPPTSEGKRMSADMSEIEARIAATTAYSKPKRGHRKTASFGNILDVPEIVISGNGQPRRRSIQDLTVTGTEPGQVSSRSSSPSVRMITTSGPTSEKPTRSHPWTPDDSTDTNGSDNSIPMAYLTLDHQLQPLAPCPNSKESMAVFEQHCKMAQEYMKVQTEIALLLQRKQELVAELDQDEKDQQNTSRLVQEHKKLLDENKSLSTYYQQCKKQLEVIRSQQQKRQGTS
increase in PAI-1 in the culture supernatant by TGF-β1 addition (Mv1Lu cell [1]): about 6.5 fold | effect of forced expression on PAI-1 expression stimulated by TGF-β (Mv1Lu cell [2]): PAI-1 expression is inhibited
